To fix the notation:
B1: Azoarcus group I ribozyme (parent)
chain: GUGCCUUGCGCCGGGAAACCACGCAAGGGAUGGUGUCAAAUUCGGCGAAACCUAAGCGCCCGCCCGGGCGUAUGGCAACGCCGAGCCAAGCUUCGGCGCCUGCGCCGAUGAAGGUGUAGAGACUAGACGGCACCCACCUAAGGCAAACGCUAUGGUGAAGGCAUAGUCCAGGGAGUGGCGAAAGUCACACAAACCGG

Variants of B1 are the subject of this series. Description: reverse-splicing fitness (ratio to wild type); higher = more active; in vitro selection; Mg2+ level not given. Put shortly:
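An in vitro group I ribozyme library with randomized positions was T7-transcribed and gel-purified. In triplicate, 10 pmol RNA in EPPS pH 7.5 was reacted with 50 pmoles of a 30-nt RNA substrate for 1 h at 37 °C across several added MgCl2 levels (1–48 mM), then stopped with EDTA. Products were reverse transcribed from a substrate-complementary primer, PCR-amplified and sequenced (HiSeq 4000). Fitness is a variant's read proportion after selection over that before, normalised to wild type.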
C82G A111G A120U A145C C150A U176C: the reverse-splicing fitness stood at 0.00344.

In the case of C82G A111G A120U A145C C150A U176G, the reverse-splicing fitness was found to be 0.00169.

For C82G A111G A120U A145C C150A U176A, the reverse-splicing fitness was found to be 0.00245.

For the variant C82G A111G A120G C150A C169U, the reverse-splicing fitness is 0.00799.

C82G A111G A120G C150A C169G: the reverse-splicing fitness is 0.0105.

For C82G A111G A120G C150A C169A, the reverse-splicing fitness turned out to be 0.0123.

For the variant C82G A111G A120G C150G C169G, the reverse-splicing fitness was found to be 0.00788.

C82G A111G A120G C150G C169A: the reverse-splicing fitness was found to be 0.00983.

Take C82G A111G A120G C150G C169U: the reverse-splicing fitness is 0.0094.

Consider C82G A111G A120G A145C C150U C169A U176A, for which the reverse-splicing fitness was 0.0167.

C82G A111G A120G A145C C150U C169A U176C: the reverse-splicing fitness was 0.00841.

Turning to C82G A111G A120G A145C C150U C169A U176G, the reverse-splicing fitness is 0.00578.

C82G A111G A120G A145U C150A: the reverse-splicing fitness is 0.00906.

Take C82G A111G A120G A145U C150U: the reverse-splicing fitness was 0.0155.

As for C82G A111G A120G A145U C150G, the reverse-splicing fitness came out at 0.00774.

As for C82G A111G A120G A145C U176G, the reverse-splicing fitness is 0.0063.

Consider C82G A111G A120G A145C U176A, for which the reverse-splicing fitness came out at 0.0154.

C82G A111G A120G A145C U176C: the reverse-splicing fitness was determined as 0.0181.

C82G A111G A120G A145G C150G C169A U176C: the reverse-splicing fitness was 0.0138.

Turning to C82G A111G A120G A145G C150G C169A U176G, the reverse-splicing fitness turned out to be 0.00881.

With C82G A111G A120G A145G C150G C169A U176A, the reverse-splicing fitness amounted to 0.0146.

Consider C82G A111G A120G A145C C169U U176C, for which the reverse-splicing fitness is 0.0166.

In the case of C82G A111G A120G A145C C169U U176A, the reverse-splicing fitness amounted to 0.0179.

As to C82G A111G A120G A145C C169U U176G, the reverse-splicing fitness was found to be 0.00427.

Take C82G A111G A120G A145G C150G C169U U176G: the reverse-splicing fitness turned out to be 0.00812.

In the case of C82G A111G A120G A145G C150G C169U U176A, the reverse-splicing fitness is 0.0127.

On to C82G A111G A120G A145G C150G C169U U176C, for which the reverse-splicing fitness is 0.0129.

Turning to C82G A111G A120G A145C C150G C169A, the reverse-splicing fitness is 0.00962.

C82G A111G A120G A145C C150G C169G: the reverse-splicing fitness is 0.00841.

On to C82G A111G A120G A145C C150G C169U, for which the reverse-splicing fitness worked out at 0.00843.

With C82G A111G A120U A145C C150A, the reverse-splicing fitness came out at 0.00572.

On to C82G A111G A120U A145C C150U, for which the reverse-splicing fitness came out at 0.0153.

Regarding C82G A111G A120U A145C C150G, the reverse-splicing fitness came out at 0.00878.

With C82G A111G A120U A145C C150A C169G, the reverse-splicing fitness came out at 0.00251.

For C82G A111G A120U A145C C150A C169A, the reverse-splicing fitness came out at 0.00228.

Regarding C82G A111G A120U A145C C150A C169U, the reverse-splicing fitness came to 0.00246.

On to C82G A111G A120G A145C C150A U176G, for which the reverse-splicing fitness is 0.00588.

Regarding C82G A111G A120G A145C C150A U176C, the reverse-splicing fitness was 0.0132.

For C82G A111G A120G A145C C150A U176A, the reverse-splicing fitness turned out to be 0.0127.

Consider C82G A111G A120U A145G C150A, for which the reverse-splicing fitness amounted to 0.0116.

For the variant C82G A111G A120U A145G C150G, the reverse-splicing fitness was determined as 0.0102.

On to C82G A111G A120G A145C C150G U176C, for which the reverse-splicing fitness was 0.0133.

Turning to C82G A111G A120G A145C C150G U176G, the reverse-splicing fitness amounted to 0.00368.

Turning to C82G A111G A120G A145C C150G U176A, the reverse-splicing fitness came out at 0.0082.

As for C82G A111G A120G C150U U176A, the reverse-splicing fitness was found to be 0.012.

As for C82G A111G A120G C150U U176G, the reverse-splicing fitness was determined as 0.00986.

For C82G A111G A120G C150U U176C, the reverse-splicing fitness turned out to be 0.0211.

With C82G A111G A120G A145U C150A C169G, the reverse-splicing fitness was 0.00924.

With C82G A111G A120G A145U C150A C169A, the reverse-splicing fitness was 0.0096.

As for C82G A111G A120G A145U C150A C169U, the reverse-splicing fitness was determined as 0.00794.

As for C82G A111G A120G C150A C169U U176C, the reverse-splicing fitness is 0.0176.

Consider C82G A111G A120G C150A C169U U176G, for which the reverse-splicing fitness worked out at 0.00912.

Turning to C82G A111G A120G C150A C169U U176A, the reverse-splicing fitness is 0.021.

As for C82G A111G A120U A145C C169A U176C, the reverse-splicing fitness worked out at 0.00168.

Turning to C82G A111G A120U A145C C169A U176G, the reverse-splicing fitness worked out at 0.00182.

As to C82G A111G A120U A145C C169A U176A, the reverse-splicing fitness was determined as 0.00186.

For C82G A111G A120G A145G C150U C169A, the reverse-splicing fitness was determined as 0.0144.

As to C82G A111G A120G A145G C150U C169U, the reverse-splicing fitness stood at 0.0141.

Regarding C82G A111G A120G A145G C150U C169G, the reverse-splicing fitness is 0.0181.

On to C82G A111G A120G A145U C150U C169U U176A, for which the reverse-splicing fitness worked out at 0.0186.

As to C82G A111G A120G A145U C150U C169U U176C, the reverse-splicing fitness was 0.0182.

As to C82G A111G A120G A145U C150U C169U U176G, the reverse-splicing fitness stood at 0.00452.

As for C82G A111G A120G A145G C169G U176A, the reverse-splicing fitness worked out at 0.0184.

As for C82G A111G A120G A145G C169G U176G, the reverse-splicing fitness came out at 0.0045.

Turning to C82G A111G A120G A145G C169G U176C, the reverse-splicing fitness amounted to 0.0248.

For C82G A111G A120G A145U U176C, the reverse-splicing fitness was 0.0242.

On to C82G A111G A120G A145U U176G, for which the reverse-splicing fitness worked out at 0.00543.

With C82G A111G A120G A145U U176A, the reverse-splicing fitness worked out at 0.0167.

For C82G A111G A120G A145G C169A, the reverse-splicing fitness is 0.0141.

In the case of C82G A111G A120G A145G C169U, the reverse-splicing fitness came out at 0.0134.

Regarding C82G A111G A120G A145G C169G, the reverse-splicing fitness is 0.0197.

Regarding C82G A111G A120G C150G U176A, the reverse-splicing fitness worked out at 0.0085.

As to C82G A111G A120G C150G U176C, the reverse-splicing fitness turned out to be 0.0157.

For the variant C82G A111G A120G C150G U176G, the reverse-splicing fitness was 0.00387.

As to C82G A111G A120G A145C C150U, the reverse-splicing fitness is 0.00975.

Turning to C82G A111G A120G A145C C150G, the reverse-splicing fitness was found to be 0.00711.

Consider C82G A111G A120G C150U C169U U176C, for which the reverse-splicing fitness came out at 0.0174.

Regarding C82G A111G A120G C150U C169U U176A, the reverse-splicing fitness came to 0.0189.

C82G A111G A120G C150U C169U U176G: the reverse-splicing fitness worked out at 0.00864.

Take C82G A111G A120U A145C C150G U176G: the reverse-splicing fitness worked out at 0.00247.

In the case of C82G A111G A120U A145C C150G U176A, the reverse-splicing fitness is 0.00327.

In the case of C82G A111G A120U A145C C150G U176C, the reverse-splicing fitness came out at 0.00396.

As for C82G A111G A120G C150G C169G U176A, the reverse-splicing fitness stood at 0.00837.

As to C82G A111G A120G C150G C169G U176G, the reverse-splicing fitness amounted to 0.0053.

Values taken from the RNAGym collection of RNA variant scans (doi:10.1093/molbev/msab373).
